We go through two molecules from US20210403593A1 (TIZONA THERAPEUTICS, published 2021).

Test [1] addresses T1, cynomolgus macaque (Macaca fascicularis) CD39 (Macaca fascicularis, UniProt P49961 7-510 (human entry)).
T1 construct: On engineered CHO cells and on primary cyno B cells and monocytes; also called cyno CD39; cCD39
T1 chain: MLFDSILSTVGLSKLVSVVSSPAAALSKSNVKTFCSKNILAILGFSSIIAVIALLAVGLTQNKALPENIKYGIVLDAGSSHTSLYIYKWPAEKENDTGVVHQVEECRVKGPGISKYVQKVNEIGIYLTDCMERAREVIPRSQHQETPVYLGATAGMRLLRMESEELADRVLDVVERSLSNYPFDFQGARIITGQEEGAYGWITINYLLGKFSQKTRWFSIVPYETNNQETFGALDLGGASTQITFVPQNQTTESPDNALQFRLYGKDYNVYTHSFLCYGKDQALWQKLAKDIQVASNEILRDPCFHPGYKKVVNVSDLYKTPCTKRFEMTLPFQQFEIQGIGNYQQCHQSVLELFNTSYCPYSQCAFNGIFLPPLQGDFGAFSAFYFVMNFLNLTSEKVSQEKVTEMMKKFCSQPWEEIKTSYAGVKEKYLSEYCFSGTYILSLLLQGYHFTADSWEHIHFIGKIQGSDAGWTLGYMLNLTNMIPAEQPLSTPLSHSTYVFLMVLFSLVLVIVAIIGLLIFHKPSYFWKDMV
Kind of test: flow cytometry, 100 nM IgG, MFI on CHO-cCD39 / MFI on parental CHO.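 Further: antibodies bound to the cells for 30 min in PBS, then bound IgG was revealed with a fluorescent goat anti-human IgG secondary antibody, 20 min on ice.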 For orientation: A flow cytometer gives signals particle by particle.

Another test addresses T2, Chimera #9 (Homo sapiens (Human), UniProt P49961 1-510).
T2 construct: Expressed on CHO cells
T2 chain: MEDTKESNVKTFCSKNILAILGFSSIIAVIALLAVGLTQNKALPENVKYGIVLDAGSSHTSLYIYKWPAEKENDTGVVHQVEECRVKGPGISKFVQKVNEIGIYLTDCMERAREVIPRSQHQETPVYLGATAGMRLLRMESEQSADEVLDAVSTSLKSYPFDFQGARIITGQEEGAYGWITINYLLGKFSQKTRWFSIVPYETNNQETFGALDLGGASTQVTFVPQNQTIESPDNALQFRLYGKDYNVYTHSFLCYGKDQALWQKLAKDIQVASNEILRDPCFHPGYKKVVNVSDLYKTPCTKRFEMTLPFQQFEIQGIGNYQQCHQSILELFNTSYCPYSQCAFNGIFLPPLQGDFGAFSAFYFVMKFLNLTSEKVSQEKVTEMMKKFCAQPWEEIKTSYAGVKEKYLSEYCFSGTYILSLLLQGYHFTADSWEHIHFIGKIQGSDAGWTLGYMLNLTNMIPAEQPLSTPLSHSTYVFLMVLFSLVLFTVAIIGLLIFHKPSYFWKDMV
Kind of test: FACS on CHO cells; Chimera 2 with human D150 ([..]).

In another test the target is T3, Chimera #2 (human, UniProt P49961 1-510).
T3 construct: Expressed on CHO cells; also called human-mouse Chimera #2
T3 chain: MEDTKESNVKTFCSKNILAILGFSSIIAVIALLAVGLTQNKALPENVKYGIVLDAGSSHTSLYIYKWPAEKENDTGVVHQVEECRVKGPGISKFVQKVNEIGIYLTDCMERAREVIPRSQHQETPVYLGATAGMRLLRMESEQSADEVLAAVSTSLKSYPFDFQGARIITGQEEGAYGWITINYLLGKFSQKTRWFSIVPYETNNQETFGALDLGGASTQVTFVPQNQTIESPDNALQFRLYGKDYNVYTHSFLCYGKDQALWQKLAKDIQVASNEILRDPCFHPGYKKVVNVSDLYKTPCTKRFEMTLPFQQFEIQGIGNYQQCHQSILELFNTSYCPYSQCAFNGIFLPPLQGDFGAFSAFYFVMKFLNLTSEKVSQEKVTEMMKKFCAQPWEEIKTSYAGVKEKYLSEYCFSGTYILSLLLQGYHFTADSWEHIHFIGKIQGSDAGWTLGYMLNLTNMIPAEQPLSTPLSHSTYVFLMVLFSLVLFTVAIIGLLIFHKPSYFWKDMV
Kind of test: FACS on CHO cells; human M1-E142 + mouse Q143-S158 ([..]) + human Y159-V510.

In another test the target is T4, Chimera #10 (Homo sapiens (Human), UniProt P49961 1-510).
T4 construct: Expressed on CHO cells
T4 chain: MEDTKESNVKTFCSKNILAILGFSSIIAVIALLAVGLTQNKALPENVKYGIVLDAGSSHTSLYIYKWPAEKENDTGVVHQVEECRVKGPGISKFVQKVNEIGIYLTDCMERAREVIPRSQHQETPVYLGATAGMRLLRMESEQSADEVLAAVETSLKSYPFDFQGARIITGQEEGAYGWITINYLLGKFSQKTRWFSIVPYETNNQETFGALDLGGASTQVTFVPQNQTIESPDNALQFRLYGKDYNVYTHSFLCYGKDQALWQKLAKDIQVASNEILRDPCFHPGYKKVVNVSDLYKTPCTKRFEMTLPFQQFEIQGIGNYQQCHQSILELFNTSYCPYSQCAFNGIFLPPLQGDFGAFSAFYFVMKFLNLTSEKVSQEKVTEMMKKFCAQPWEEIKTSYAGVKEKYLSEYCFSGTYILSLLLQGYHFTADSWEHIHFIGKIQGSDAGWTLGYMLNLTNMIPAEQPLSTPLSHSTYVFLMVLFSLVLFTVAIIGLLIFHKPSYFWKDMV
Briefly: FACS on CHO cells; Chimera 2 with human E153 ([..]).

A further test deals with T5, human CD39 (cellular) (human, UniProt P49961 1-510).
T5 construct: Same protein on engineered CHO cells and on cells that express it endogenously; also called hCD39; cellular CD39
T5 sequence: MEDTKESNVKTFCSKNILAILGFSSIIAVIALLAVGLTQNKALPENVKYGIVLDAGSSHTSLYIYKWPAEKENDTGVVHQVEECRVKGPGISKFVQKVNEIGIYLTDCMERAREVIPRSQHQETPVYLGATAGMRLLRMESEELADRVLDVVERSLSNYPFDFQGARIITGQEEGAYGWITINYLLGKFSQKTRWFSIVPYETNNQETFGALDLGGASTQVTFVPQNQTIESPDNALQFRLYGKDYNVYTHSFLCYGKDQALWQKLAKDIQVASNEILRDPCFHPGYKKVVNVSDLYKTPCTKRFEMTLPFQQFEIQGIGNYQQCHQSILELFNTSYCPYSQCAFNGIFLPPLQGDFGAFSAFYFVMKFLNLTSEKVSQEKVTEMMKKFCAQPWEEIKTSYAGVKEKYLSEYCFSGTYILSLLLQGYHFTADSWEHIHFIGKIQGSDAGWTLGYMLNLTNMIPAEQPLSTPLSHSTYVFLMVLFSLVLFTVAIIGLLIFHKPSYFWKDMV
Kind of test: flow cytometry, 100 nM IgG, MFI on CHO-hCD39 / MFI on parental CHO.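 Further: cells exposed to IgG for 30 min on ice in PBS, bound antibody then revealed with a fluorescent goat anti-human IgG secondary (20 min, on ice).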

B1: 31901 (antibody, human IgG4 S228P, kappa, V domains shown)
VH: QVQLVQSGAEVKKPGSSVKVSCKASGGTFSSLPISWVRQAPGQGLEWMGGIGFGTANYAQKFQGRVTITADESTSTAYMELSSLRSEDTAVYYCARGGAKYAGRYGMDVWGQGTTVTVSS
VL: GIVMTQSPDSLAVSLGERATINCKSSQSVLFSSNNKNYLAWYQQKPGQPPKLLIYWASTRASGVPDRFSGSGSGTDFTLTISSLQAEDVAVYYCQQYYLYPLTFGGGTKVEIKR
For B1, the “Cell Binding (FOB)” value turned out to be 4660 fold over background in test [1] and 1110 fold over background with human CD39 (cellular). In addition, the binding result in the test with Chimera #9, with Chimera #2 and with Chimera #10 was “no binding (tested: 15 ug/ml)” each time.

B2: 31905 (antibody, human IgG4 S228P, kappa, V domains shown)
VH: QVQLVQSGAEVKKPGSSVKVSCKASGGTFPSNAISWVRQAPGQGLEWMGGIGFGTANYAQKFQGRVTITADESTSTAYMELSSLRSEDTAVYYCARGGAKYARTYGMDVWGQGTTVTVSS
VL: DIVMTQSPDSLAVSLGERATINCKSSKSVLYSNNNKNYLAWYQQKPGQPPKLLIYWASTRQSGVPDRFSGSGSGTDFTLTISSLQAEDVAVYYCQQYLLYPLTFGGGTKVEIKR
As to B2, the figures for the “Cell Binding (FOB)” value (in test [1]; with human CD39 (cellular)) were 4940 fold over background and 1080 fold over background, respectively. Moreover, the binding result with Chimera #9, with Chimera #2 and in the test with Chimera #10 was “no binding (tested: 15 ug/ml)” each time.
